Measurements taken from patent publication US20180155451A1 (published 2018).

target: T1, FcγRIa (human, UniProt P12314 16-292); experiment: SPR; vs GpH7-B3/GpL16-k0=100
T1 construct: extracellular domain; also called FcgRI; CD64
T1 sequence (P12314 16-292): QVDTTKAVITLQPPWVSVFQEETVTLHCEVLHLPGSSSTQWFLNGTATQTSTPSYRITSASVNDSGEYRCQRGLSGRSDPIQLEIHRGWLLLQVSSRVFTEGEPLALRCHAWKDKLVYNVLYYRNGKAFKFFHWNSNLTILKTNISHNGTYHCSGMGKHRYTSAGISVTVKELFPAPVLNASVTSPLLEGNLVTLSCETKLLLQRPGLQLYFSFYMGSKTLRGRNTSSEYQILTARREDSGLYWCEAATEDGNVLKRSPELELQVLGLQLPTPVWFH

| Binder | Ho/Con_1a |
| --- | --- |
| GpH7-B3 variant A330_14T/GpL16-k0 (antibody, human IgG1, kappa, homodimerized; also called Ho Ab A330_14T) heavy: not shown light: DIVMTQSPLSLPVTPGEPASISCQASESLVHSNRNTYLHWYLQKPGQSPQLLIYKVSNRFSGVPDRFSGSGSGTDFTLKISRVEAEDVGVYYCSQNTHVPPTFGQGTKVEIERTVAAPSVFIFPPSDEQLKSGTASVVCLLNNFYPREAKVQWKVDNALQSGNSQESVTEQDSKDSTYSLSSTLTLSKADYEKHKVYACEVTHQGLSSPVTKSFNRGEC | 105 % of control |
| GpH7-B3 variant E333_05P/GpL16-k0 (antibody, human IgG1, kappa, homodimerized; also called Ho Ab E333_05P) heavy: not shown light: DIVMTQSPLSLPVTPGEPASISCQASESLVHSNRNTYLHWYLQKPGQSPQLLIYKVSNRFSGVPDRFSGSGSGTDFTLKISRVEAEDVGVYYCSQNTHVPPTFGQGTKVEIERTVAAPSVFIFPPSDEQLKSGTASVVCLLNNFYPREAKVQWKVDNALQSGNSQESVTEQDSKDSTYSLSSTLTLSKADYEKHKVYACEVTHQGLSSPVTKSFNRGEC | 99.2 % of control |
| GpH7-B3 variant E333_01G/GpL16-k0 (antibody, human IgG1, kappa, homodimerized; also called Ho Ab E333_01G) heavy: not shown light: DIVMTQSPLSLPVTPGEPASISCQASESLVHSNRNTYLHWYLQKPGQSPQLLIYKVSNRFSGVPDRFSGSGSGTDFTLKISRVEAEDVGVYYCSQNTHVPPTFGQGTKVEIERTVAAPSVFIFPPSDEQLKSGTASVVCLLNNFYPREAKVQWKVDNALQSGNSQESVTEQDSKDSTYSLSSTLTLSKADYEKHKVYACEVTHQGLSSPVTKSFNRGEC | 100 % of control |
| GpH7-B3 variant E269_14T/GpL16-k0 (antibody, human IgG1, kappa, homodimerized; also called Ho Ab E269_14T) heavy: not shown light: DIVMTQSPLSLPVTPGEPASISCQASESLVHSNRNTYLHWYLQKPGQSPQLLIYKVSNRFSGVPDRFSGSGSGTDFTLKISRVEAEDVGVYYCSQNTHVPPTFGQGTKVEIERTVAAPSVFIFPPSDEQLKSGTASVVCLLNNFYPREAKVQWKVDNALQSGNSQESVTEQDSKDSTYSLSSTLTLSKADYEKHKVYACEVTHQGLSSPVTKSFNRGEC | 96.2 % of control |
| GpH7-B3 variant A330_16H/GpL16-k0 (antibody, human IgG1, kappa, homodimerized; also called Ho Ab A330_16H) heavy: not shown light: DIVMTQSPLSLPVTPGEPASISCQASESLVHSNRNTYLHWYLQKPGQSPQLLIYKVSNRFSGVPDRFSGSGSGTDFTLKISRVEAEDVGVYYCSQNTHVPPTFGQGTKVEIERTVAAPSVFIFPPSDEQLKSGTASVVCLLNNFYPREAKVQWKVDNALQSGNSQESVTEQDSKDSTYSLSSTLTLSKADYEKHKVYACEVTHQGLSSPVTKSFNRGEC | 104 % of control |
| GpH7-B3 variant E269_06M/GpL16-k0 (antibody, human IgG1, kappa, homodimerized; also called Ho Ab E269_06M) heavy: not shown light: DIVMTQSPLSLPVTPGEPASISCQASESLVHSNRNTYLHWYLQKPGQSPQLLIYKVSNRFSGVPDRFSGSGSGTDFTLKISRVEAEDVGVYYCSQNTHVPPTFGQGTKVEIERTVAAPSVFIFPPSDEQLKSGTASVVCLLNNFYPREAKVQWKVDNALQSGNSQESVTEQDSKDSTYSLSSTLTLSKADYEKHKVYACEVTHQGLSSPVTKSFNRGEC | 101 % of control |
| GpH7-B3 variant E269_09D/GpL16-k0 (antibody, human IgG1, kappa, homodimerized; also called Ho Ab E269_09D) heavy: not shown light: DIVMTQSPLSLPVTPGEPASISCQASESLVHSNRNTYLHWYLQKPGQSPQLLIYKVSNRFSGVPDRFSGSGSGTDFTLKISRVEAEDVGVYYCSQNTHVPPTFGQGTKVEIERTVAAPSVFIFPPSDEQLKSGTASVVCLLNNFYPREAKVQWKVDNALQSGNSQESVTEQDSKDSTYSLSSTLTLSKADYEKHKVYACEVTHQGLSSPVTKSFNRGEC | 106 % of control |
| GpH7-B3 variant E269_03V/GpL16-k0 (antibody, human IgG1, kappa, homodimerized; also called Ho Ab E269_03V) heavy: not shown light: DIVMTQSPLSLPVTPGEPASISCQASESLVHSNRNTYLHWYLQKPGQSPQLLIYKVSNRFSGVPDRFSGSGSGTDFTLKISRVEAEDVGVYYCSQNTHVPPTFGQGTKVEIERTVAAPSVFIFPPSDEQLKSGTASVVCLLNNFYPREAKVQWKVDNALQSGNSQESVTEQDSKDSTYSLSSTLTLSKADYEKHKVYACEVTHQGLSSPVTKSFNRGEC | 95.4 % of control |
| GpH7-B3 variant E269_13S/GpL16-k0 (antibody, human IgG1, kappa, homodimerized; also called Ho Ab E269_13S) heavy: not shown light: DIVMTQSPLSLPVTPGEPASISCQASESLVHSNRNTYLHWYLQKPGQSPQLLIYKVSNRFSGVPDRFSGSGSGTDFTLKISRVEAEDVGVYYCSQNTHVPPTFGQGTKVEIERTVAAPSVFIFPPSDEQLKSGTASVVCLLNNFYPREAKVQWKVDNALQSGNSQESVTEQDSKDSTYSLSSTLTLSKADYEKHKVYACEVTHQGLSSPVTKSFNRGEC | 95.9 % of control |
| GpH7-B3 variant E269_16H/GpL16-k0 (antibody, human IgG1, kappa, homodimerized; also called Ho Ab E269_16H) heavy: not shown light: DIVMTQSPLSLPVTPGEPASISCQASESLVHSNRNTYLHWYLQKPGQSPQLLIYKVSNRFSGVPDRFSGSGSGTDFTLKISRVEAEDVGVYYCSQNTHVPPTFGQGTKVEIERTVAAPSVFIFPPSDEQLKSGTASVVCLLNNFYPREAKVQWKVDNALQSGNSQESVTEQDSKDSTYSLSSTLTLSKADYEKHKVYACEVTHQGLSSPVTKSFNRGEC | 98.4 % of control |
| GpH7-B3 variant E269_19Q/GpL16-k0 (antibody, human IgG1, kappa, homodimerized; also called Ho Ab E269_19Q) heavy: not shown light: DIVMTQSPLSLPVTPGEPASISCQASESLVHSNRNTYLHWYLQKPGQSPQLLIYKVSNRFSGVPDRFSGSGSGTDFTLKISRVEAEDVGVYYCSQNTHVPPTFGQGTKVEIERTVAAPSVFIFPPSDEQLKSGTASVVCLLNNFYPREAKVQWKVDNALQSGNSQESVTEQDSKDSTYSLSSTLTLSKADYEKHKVYACEVTHQGLSSPVTKSFNRGEC | 99.6 % of control |
| GpH7-B3 variant E333_03V/GpL16-k0 (antibody, human IgG1, kappa, homodimerized; also called Ho Ab E333_03V) heavy: not shown light: DIVMTQSPLSLPVTPGEPASISCQASESLVHSNRNTYLHWYLQKPGQSPQLLIYKVSNRFSGVPDRFSGSGSGTDFTLKISRVEAEDVGVYYCSQNTHVPPTFGQGTKVEIERTVAAPSVFIFPPSDEQLKSGTASVVCLLNNFYPREAKVQWKVDNALQSGNSQESVTEQDSKDSTYSLSSTLTLSKADYEKHKVYACEVTHQGLSSPVTKSFNRGEC | 98.4 % of control |
| GpH7-B3 variant E269_05P/GpL16-k0 (antibody, human IgG1, kappa, homodimerized; also called Ho Ab E269_05P) heavy: not shown light: DIVMTQSPLSLPVTPGEPASISCQASESLVHSNRNTYLHWYLQKPGQSPQLLIYKVSNRFSGVPDRFSGSGSGTDFTLKISRVEAEDVGVYYCSQNTHVPPTFGQGTKVEIERTVAAPSVFIFPPSDEQLKSGTASVVCLLNNFYPREAKVQWKVDNALQSGNSQESVTEQDSKDSTYSLSSTLTLSKADYEKHKVYACEVTHQGLSSPVTKSFNRGEC | 95.7 % of control |
| GpH7-B3 variant E269_18N/GpL16-k0 (antibody, human IgG1, kappa, homodimerized; also called Ho Ab E269_18N) heavy: not shown light: DIVMTQSPLSLPVTPGEPASISCQASESLVHSNRNTYLHWYLQKPGQSPQLLIYKVSNRFSGVPDRFSGSGSGTDFTLKISRVEAEDVGVYYCSQNTHVPPTFGQGTKVEIERTVAAPSVFIFPPSDEQLKSGTASVVCLLNNFYPREAKVQWKVDNALQSGNSQESVTEQDSKDSTYSLSSTLTLSKADYEKHKVYACEVTHQGLSSPVTKSFNRGEC | 92.7 % of control |
| GpH7-B3 variant E269_15Y/GpL16-k0 (antibody, human IgG1, kappa, homodimerized; also called Ho Ab E269_15Y) heavy: not shown light: DIVMTQSPLSLPVTPGEPASISCQASESLVHSNRNTYLHWYLQKPGQSPQLLIYKVSNRFSGVPDRFSGSGSGTDFTLKISRVEAEDVGVYYCSQNTHVPPTFGQGTKVEIERTVAAPSVFIFPPSDEQLKSGTASVVCLLNNFYPREAKVQWKVDNALQSGNSQESVTEQDSKDSTYSLSSTLTLSKADYEKHKVYACEVTHQGLSSPVTKSFNRGEC | 100 % of control |
| GpH7-B3 variant E269_02A/GpL16-k0 (antibody, human IgG1, kappa, homodimerized; also called Ho Ab E269_02A) heavy: not shown light: DIVMTQSPLSLPVTPGEPASISCQASESLVHSNRNTYLHWYLQKPGQSPQLLIYKVSNRFSGVPDRFSGSGSGTDFTLKISRVEAEDVGVYYCSQNTHVPPTFGQGTKVEIERTVAAPSVFIFPPSDEQLKSGTASVVCLLNNFYPREAKVQWKVDNALQSGNSQESVTEQDSKDSTYSLSSTLTLSKADYEKHKVYACEVTHQGLSSPVTKSFNRGEC | 96.2 % of control |
| GpH7-B3 variant E269_20W/GpL16-k0 (antibody, human IgG1, kappa, homodimerized; also called Ho Ab E269_20W) heavy: not shown light: DIVMTQSPLSLPVTPGEPASISCQASESLVHSNRNTYLHWYLQKPGQSPQLLIYKVSNRFSGVPDRFSGSGSGTDFTLKISRVEAEDVGVYYCSQNTHVPPTFGQGTKVEIERTVAAPSVFIFPPSDEQLKSGTASVVCLLNNFYPREAKVQWKVDNALQSGNSQESVTEQDSKDSTYSLSSTLTLSKADYEKHKVYACEVTHQGLSSPVTKSFNRGEC | 98.9 % of control |
| GpH7-B3 variant E333_04F/GpL16-k0 (antibody, human IgG1, kappa, homodimerized; also called Ho Ab E333_04F) heavy: not shown light: DIVMTQSPLSLPVTPGEPASISCQASESLVHSNRNTYLHWYLQKPGQSPQLLIYKVSNRFSGVPDRFSGSGSGTDFTLKISRVEAEDVGVYYCSQNTHVPPTFGQGTKVEIERTVAAPSVFIFPPSDEQLKSGTASVVCLLNNFYPREAKVQWKVDNALQSGNSQESVTEQDSKDSTYSLSSTLTLSKADYEKHKVYACEVTHQGLSSPVTKSFNRGEC | 98.4 % of control |
| GpH7-B3 variant E269_08L/GpL16-k0 (antibody, human IgG1, kappa, homodimerized; also called Ho Ab E269_08L) heavy: not shown light: DIVMTQSPLSLPVTPGEPASISCQASESLVHSNRNTYLHWYLQKPGQSPQLLIYKVSNRFSGVPDRFSGSGSGTDFTLKISRVEAEDVGVYYCSQNTHVPPTFGQGTKVEIERTVAAPSVFIFPPSDEQLKSGTASVVCLLNNFYPREAKVQWKVDNALQSGNSQESVTEQDSKDSTYSLSSTLTLSKADYEKHKVYACEVTHQGLSSPVTKSFNRGEC | 101 % of control |
| GpH7-B3 variant E269_07I/GpL16-k0 (antibody, human IgG1, kappa, homodimerized; also called Ho Ab E269_07I) heavy: not shown light: DIVMTQSPLSLPVTPGEPASISCQASESLVHSNRNTYLHWYLQKPGQSPQLLIYKVSNRFSGVPDRFSGSGSGTDFTLKISRVEAEDVGVYYCSQNTHVPPTFGQGTKVEIERTVAAPSVFIFPPSDEQLKSGTASVVCLLNNFYPREAKVQWKVDNALQSGNSQESVTEQDSKDSTYSLSSTLTLSKADYEKHKVYACEVTHQGLSSPVTKSFNRGEC | 97.1 % of control |
| GpH7-B3 variant E333_02A/GpL16-k0 (antibody, human IgG1, kappa, homodimerized; also called Ho Ab E333_02A) heavy: not shown light: DIVMTQSPLSLPVTPGEPASISCQASESLVHSNRNTYLHWYLQKPGQSPQLLIYKVSNRFSGVPDRFSGSGSGTDFTLKISRVEAEDVGVYYCSQNTHVPPTFGQGTKVEIERTVAAPSVFIFPPSDEQLKSGTASVVCLLNNFYPREAKVQWKVDNALQSGNSQESVTEQDSKDSTYSLSSTLTLSKADYEKHKVYACEVTHQGLSSPVTKSFNRGEC | 96.2 % of control |
| GpH7-B3 variant E269_01G/GpL16-k0 (antibody, human IgG1, kappa, homodimerized; also called Ho Ab E269_01G) heavy: not shown light: DIVMTQSPLSLPVTPGEPASISCQASESLVHSNRNTYLHWYLQKPGQSPQLLIYKVSNRFSGVPDRFSGSGSGTDFTLKISRVEAEDVGVYYCSQNTHVPPTFGQGTKVEIERTVAAPSVFIFPPSDEQLKSGTASVVCLLNNFYPREAKVQWKVDNALQSGNSQESVTEQDSKDSTYSLSSTLTLSKADYEKHKVYACEVTHQGLSSPVTKSFNRGEC | 97.4 % of control |
